Patent publication US9051356

Target: synthetic glycosylated MUC1 30-mer peptide …[GalNAcalpha]…
Test: ELISA on plate-coated glycosylated MUC1 30-mer peptide, antibody 1-400 ng/ml, anti-human Fcgamma1-peroxidase detection

Sequence of synthetic glycosylated MUC1 30-mer peptide …[GalNAcalpha]… (peptide, as listed by the source): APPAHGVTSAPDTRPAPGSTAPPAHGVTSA

binding activity, percent higher than that of the same antibody isolated from CHOdhfr- cells: 50%
Substance: chimeric PankoMab isolated from NM-F9 cells (antibody)
